Assays:
[1] = parameters: species or system ddY-strain male mice; settings: mouse
Description: 100 μL (about 1 μCi) of unpurified ^99mTc-(D-Pen-N-hexanoate-cRGDfK)2 or ^99mTc-(D-Pen-N-hexanoate-cRGDfK)2 purified by RP-HPLC was administered to the tail veins of ddY-strain male mice at 6 weeks of age (three mice for each group). The mice were sacrificed 10 minutes, 1, 3, and 6 hours after the administration, and blood samples were collected. The mice were anatomized, and the weight and radioactivity of each organ were measured. The radioactivity in urine and feces excreted by 6 hours after the administration was also measured.

[2] = tested on: Human glioma cell line, U87MG cells; assay: Accumulation of radiolabeled drug in tumor and organ of tumor-bearing mice; type: in vivo, Balb/c-nu/nu mice; settings: for Ratio of accumulation in tumor to that in tissue: Tumor/Blood / Ratio of accumulation in tumor to that in tissue: Tumor/Intestine / Ratio of accumulation in tumor to that in tissue: Tumor/Liver: 1 hour after administration; for Accumulated amount in tissue: Blood / Accumulated amount in tissue: Intestine / Accumulated amount in tissue: Kidney / Accumulated amount in tissue: Liver / Accumulated amount in tissue: Lung / Accumulated amount in tissue: Stomach / Accumulated amount in tissue: Tumor: 1 hour after tail vein administration
Description: Human glioma cell line, U87MG cells at 5×10^6 cells/mouse were administered subcutaneously in the left femur of Balb/c-nu/nu mice at 4 weeks of age. The mice bearing the tumor of 0.5 g in size were used for a body distribution experiment.
A ^99mTc-GH solution with [GH]=4.0 mg/mL was obtained by adding 750 μL (1.58 μCi) of a solution of Na[^99mTcO4] in saline eluted from a ^99Mo/^99mTc generator to a lyophilized GH kit (3.0 mg) including α-D-glucoheptonic acid and stannous chloride to perform a reaction at room temperature for 20 minutes. Further, a 2 mM ligand solution was separately prepared by dissolving D-Pen-Hx-cRGDfK (0.8 mg, […]) in 471 μL of 0.1 M Tris hydrochloride buffer (pH 9.0) purged with nitrogen. 140 μL of the ^99mTc-GH solution was added to 140 μL of the ligand solution, they were sufficiently mixed, and then subjected to a reaction at 40° C. for 40 minutes. The reaction solution was diluted to 40-fold with saline so that [Free ligand]=0.025 mM to use as the unpurified sample to be administered.
A ^99mTc-GH solution with [GH]=4.0 mg/mL was obtained by adding 500 μL (970 μCi) of a solution of Na[^99mTcO4] in saline eluted from a ^99Mo/^99mTc generator to a lyophilized GH kit (2.0 mg) including α-D-glucoheptonic acid and stannous chloride to perform a reaction at room temperature for 20 minutes. Further, a 2 mM ligand solution was separately prepared by dissolving TMEC-[N-hexanoate-c(Arg-Gly-Asp-D-Phe-Lys)]2 (hereinafter, sometimes abbreviated as TMEC-RGD2) (0.7 mg, 0.406 μmol) in 200 μL of 0.1 M acetate buffer (pH 3.5) purged with nitrogen. 200 μL of the ^99mTc-GH solution was added to 200 μL of the ligand solution, they were sufficiently mixed, and then subjected to a reaction at 80° C. for one hour. A half amount of the reaction solution (200 μL) was applied to RP-HPLC (mobile phase: A=10 mM phosphate buffer (pH 6.0), B=MeOH; gradient system: 0 to 18 minutes: B=0 to 60%, 18 to 26 minutes: B=60 to 100%, 26 to 31 minutes: B=100%), a fraction eluted at 24 minutes was collected, the organic solvent was distilled off under reduced pressure, and then the residue was diluted with 10% ethanol/saline to use as the purified sample. Further, the other half amount of the reaction solution (200 μL) was diluted to 40-fold with saline so that [Free ligand]=0.025 mM to use as the unpurified sample to be administered.
100 μL of the unpurified ^99mTC-(D-Pen-Hx-cRDGfK)2 sample (about 1.1 μCi) was administered to the tail veins of tumor-bearing Balb/c-nu/nu male mice at 10 weeks of age. There were 5 mice in one group. The mice were sacrificed by beheading 1 hour after the administration. Blood, organs of interest, and the tumor were removed, and the weight of and the radioactivity in each organ were measured.
100 μL of the purified or unpurified ^99mTc-TMEC-RGD2 sample (about 0.5 μCi) was administered to the tail veins of tumor-bearing Balb/c-nu/nu male mice at 10 weeks of age. There were 4 mice in one group. The mice were sacrificed by beheading 1 hour after the administration. Blood, organs of interest, and the tumor were removed, and the weight of and the radioactivity in each organ were measured.

[3] = Stability of 99mTc complex in buffer; type: physicochemical; settings: 0.01 M phosphate buffer (pH 6.0), room temperature, after 1, 3, 6, and 24 hours
Description: 11. Examination of Stability
Each ^99mTc-labeled compound was purified by RP-HPLC (method 1 or method 2), and then the solvent was distilled off under reduced pressure. The residue was redissolved in 400 μL of 0.01 M phosphate buffer (pH 6.0). This solution was stored at room temperature, and after 1, 3, 6, and 24 hours, its radiochemical purity was analyzed by CAE or RP-HPLC.

[4] = administered after removing the excessive ligand by HPLC
[5] = administered without removing the excessive ligand

With “^99mTc-(D-Pen-N-hexanoate-cRGDfK)2 [^99mTc-(Pen-RGD)2]” the Stability in vivo [1] was “stable in vivo” and the “Ratio accumulated in the tumor to that in each tissue, compared with purified 99mTc-TMEC-RGD2” value ([2]; mouse, in vivo) was “equivalence to or higher than”.
In the case of “^99mTc-(D-penicillamine)2 [^99mTc-(D-Pen)2]”, the “Stability in a buffer (radiochemical purity)” value [3] is reported as “higher stability”.
In the case of “^99mTc-TMEC-[N-hexanoate-c(Arg-Gly-Asp-D-Phe-Lys)]2 [^99mTc-TMEC-RGD2]”, the “Ratio of accumulation in tumor to that in tissue: Tumor/Blood” value [2, 4] is reported as 4.91 (1.07), the “Ratio of accumulation in tumor to that in tissue: Tumor/Intestine” value [2, 4] is reported as 0.54 (0.10) and the “Ratio of accumulation in tumor to that in tissue: Tumor/Liver” value [2, 4] is reported as 0.65 (0.14). The “Accumulated amount in tissue: Blood” value [2, 4] was 0.72 (0.02) % injected dose/gram tissue, the “Accumulated amount in tissue: Intestine” value [2, 4] was 6.70 (0.75) % injected dose/gram tissue and the “Accumulated amount in tissue: Kidney” value [2, 4] was 16.68 (3.87) % injected dose/gram tissue. The “Accumulated amount in tissue: Liver” value [2, 4] was 5.47 (0.41) % injected dose/gram tissue, the “Accumulated amount in tissue: Lung” value [2, 4] was 2.33 (0.31) % injected dose/gram tissue and the “Accumulated amount in tissue: Stomach” value [2, 4] was 1.20 (0.16) % injected dose. For the same substance, the “Accumulated amount in tissue: Tumor” value [2, 4] was “increased”, the “Accumulated amount in tissue: Tumor” value ([2]; administered after removing the excessive ligand by HPLC, listed as 99mTC-TMEC-RGD2) was 3.54 (0.72) % injected dose/gram tissue and the “Ratio of accumulation in tumor to that in tissue: Tumor/Blood” value [2, 5] was 3.41 (1.55). The “Ratio of accumulation in tumor to that in tissue: Tumor/Intestine” value [2, 5] was 0.37 (0.13), the “Ratio of accumulation in tumor to that in tissue: Tumor/Liver” value [2, 5] was 0.67 (0.31) and the “Accumulated amount in tissue: Blood” value [2, 5] was 0.86 (0.33) % injected dose/gram tissue. For the same substance, the “Accumulated amount in tissue: Intestine” value [2, 5] was 7.42 (1.95) % injected dose/gram tissue, the “Accumulated amount in tissue: Kidney” value [2, 5] was 26.82 (8.71) % injected dose/gram tissue and the “Accumulated amount in tissue: Liver” value [2, 5] was 4.57 (2.10) % injected dose/gram tissue. The “Accumulated amount in tissue: Lung” value [2, 5] was 2.38 (0.57) % injected dose/gram tissue and the “Accumulated amount in tissue: Stomach” value [2, 5] was 0.79 (0.30) % injected dose.

— US20120065367A1, “Radioactively Labeled Substance” (priority 2009, published 2012)
